The results in this text go back to patent US11168320.

In this series the target is Thrombin (UniProt P00734+P00734). The series can be described thus: EMSA. The settings on record: 0.1 nM aptamer, thrombin 0.1-12.8 nM; more than half bound at 0.1 nM thrombin. In general terms: A gel shift assay detects complexes by their altered migration in electrophoresis.

Where only a bound is given, the exact number is not on record here.

In the case of “NTAGGDTGGGTAGGGTGGTNAGGGWTGATGYGTGGTAGGC [Bivalent aptamer AD]”, the Kd (as a rule, the equilibrium constant for the complex coming apart) was below 0.1 nM.
